Source: publication PMC3622925

Biological target: Trichomonas vaginalis virus 1 strain UH9 coat protein (Trichomonas vaginalis virus 1 (TVV1), strain UH9)
Experiment: cryo-EM structure

Trichomonas vaginalis virus 1 strain UH9 coat protein (natural protein)
stoichiometry N (subunits per capsid): 120
